The values below come from the nanobody polyreactivity screen of Harvey et al. (2022).

The nature of this data set: yeast display, Sf9 membrane polyspecificity reagent, FACS + sequencing; frameworks hold sequencing errors. The gist of the method:
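Polyreactivity labels are assigned by the sorting gate from which each nanobody was recovered. The gates were low and high (top ~1%), set on anti-HA fluorescence for expression and streptavidin fluorescence for reagent binding. Before sorting, galactose-induced (36–48 hours) yeast display cells were stained for 1 hour at 4 °C with 10% biotinylated, detergent-solubilized Sf9 membrane reagent.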
“QVQLVESGGGLVQAGGSLRLSCAASGFILPHNAMGWYRQAPGKERELVAAISGSGGSTYYADSVKGRFTISRDNAKNTVYLQMNSLKPEDTAFYYCNADVWVYPYDYWGQGTQVTVSS”: the “polyreactivity (PSR sort gate)” value is “low polyreactivity”.

For the sequence “QVHLVESGGGLVQAGGSLRLSCAASGITFKRYAMGWYRQAPGKERELVAAISDIGGRTYYADSVKGRFTISRDNAKNTVYLQMNSLKPEDTAGYFCAADYYSPVDWYYYWGQGTQVTVSS”, the “polyreactivity (PSR sort gate)” value is on record as “high polyreactivity”.

In the case of “QVQLVESGGGLVQAGGSLRLSCAASGNIFYGYAMGWYRQAPGKERELVAAITSDGITYYADSVKGRFTISRDNAKNTVYLQMNSLKPEDTAVYYCNVTQLYEYYKYYYWGQGTQVTVSS”, the “polyreactivity (PSR sort gate)” value is “low polyreactivity”.

With “QVQLVESGGGLVQAGGSLCLSCAASGIFVYNAMGWYRQAPGKEREFVAAINKSGASTFYADSVKGRFTISRDNAKNTVYLQMNSLKPEDTAVYYCRERDYWGQGTQVTVSS”, the “polyreactivity (PSR sort gate)” value is given as “low polyreactivity”.

As for “QVQLVESGGGLVQSGGSLRLSCAASGSIFNLYAMGWYRQAPGKERELVAAINWSGGSTYYADSVNGRFTISRDNAKNTVYLQMNRLKPEDTAVSYCAADAYSTYYGYEGVYWGQGTQVTVSS”, the “polyreactivity (PSR sort gate)” value is “low polyreactivity”.

In the case of “QVQLVESGGGLVQAGGSLRLSCAASGFIFSRYAMGWYRQAPGKERELVAAISGRGTSTYYADSVKGRFTISRDNAKNTVYLQMNSLKPEDTAVYYCNTYSQPKWGTSDYDYWGQGTQVTVSS”, the “polyreactivity (PSR sort gate)” value is “high polyreactivity”.

With “QVQLVESGGGLVQAGGSLRLSCAASGFIIGDYAMGWYRQAPGKERELVAAITISGGGTYYADSVKGRFTISRDNAKNTVYLQMNSLKPEDTAVYYCAAGYYDLNLDTDFGFDYWGQGTQVTVSS”, the “polyreactivity (PSR sort gate)” value is “low polyreactivity”.

Consider “QVQLVESGGGLVQAGGSLRLSCAASGRTFYWYGMGWYRQAPGKERELVATISRGSRTYYADSVKGRFTISRDNAKNTVYLQMNSLKPEDTAVYYCNADTWPGEYNGYFSGAYDYWGQGTQVTVSS”, for which the “polyreactivity (PSR sort gate)” value is recorded as “high polyreactivity”.

On to “QVQLVESGGGLVQAGGSLRLSCAASGRIFWDNAMGWYRQAPGKERELVAAITFSGGSTYYADSVKGRFTISRDNAKNTVYLQMNSLKPEDTAVYYCAKGEWVYWRPWYEYWGQGTQVTVSS”, for which the “polyreactivity (PSR sort gate)” value is “low polyreactivity”.

Regarding “QVQLVESGGGLVQAGGSLRLSCAASGRTLAENAMGWYRQAPGKERELVAAISSIGGRTYYADSVKGRFTISRDNAKNTVYLQMNSLKPEDTAVYYCAATLRTKSARYNYWGQGTQVTVSS”, the “polyreactivity (PSR sort gate)” value is recorded as “high polyreactivity”.

In the case of “QVQLLESGGGLVQAGGRLRLSCADSGGIIAYNAIGWYRQAPAKERELVAAISSSGGRTYYADSVKGRFTISRDNAKITVYLQMNSLKPEDTAVYYFAAVRSGIEYGYWGQGTQVTVSS”, the “polyreactivity (PSR sort gate)” value is recorded as “high polyreactivity”.

Turning to “QVQLVESGGGLVQAGGSLRLSCAASGFIFTDYAMGWYRQATGQEREFVAAIDWSGGNTYYADSVKGRFTISRDNAKNTVYLQLNSLKPEDTAVFFCSASGSAREYDYWGQGTQVTVSS”, the “polyreactivity (PSR sort gate)” value was “low polyreactivity”.

For “QVQLVESGGGLVQAGGSLRLSCAASGYTFDTKAMGWYRLAPGKERELVAAISRIGGRTYADSVKGRFTISRDNAKNTVYLQMNSLKPEDTAVYYGAADTTWYPYGYDSWGQGTPVTVSS”, the “polyreactivity (PSR sort gate)” value was “low polyreactivity”.

With “QVQLVESGGGLVQAGGSLRLSCAASGRTFGLYDMGWYRQAPGKERELVAGITRRGGRTYYADSVKGRFTISRDNAKNTVYLQMNSLKPEDTAVYYGAAGTLYLRHAQSPFDYWGQGTQVTVSS”, the “polyreactivity (PSR sort gate)” value was “high polyreactivity”.

For the sequence “QVQLVESAAGLVQAGASLRLSCAASGRTSTQNAMGWYRQAPGKERELVAAITTGGGSTYYADSVKGRFTISRDNAKYTVYLQMNSLKPEDTAVYYCAARTPQRSEWTQYGYWGQGTQVTVSS”, the “polyreactivity (PSR sort gate)” value was “low polyreactivity”.

As to “QVQLVESGGGLFQAGGSLRLSCAASGSIFGDYAMGWYRQAPGKERELVAAITSSGGITYYADSVKGRFTISRDNAKNTVYLQMNSLKPEDTAVYYCAAYGYGSNYRYTCYYYWGQGTQVTVSS”, the “polyreactivity (PSR sort gate)” value is “low polyreactivity”.

Turning to “QVQLVESGGGLVQAGGSLRLSCAGSGRTVANNAMGWYRQAPGKERELVAAISNGDSPYADSVKGRFTISRDNAKNTVYLQLNSLKPEDTAVYYCATRTQEDYTGDYWGQGTQVTVSS”, the “polyreactivity (PSR sort gate)” value is recorded as “low polyreactivity”.

As to “QVQLVESGGGLVQAGGSLRLSCAASGRTFYRYAMGWYRQAPGKEREYVASITRGGGITYYADSVKGRFTISRDNAKNTVYLQMNSLKPEDSAVYYCAARQYGPRYTFYYWGQGTQVTVSS”, the “polyreactivity (PSR sort gate)” value is “high polyreactivity”.

With “QVQLVESGGGLVQAGGSLRLSCAASGRTFGANAMGWYRQAPGKERELVAAINSGDITNYADSVKGRFTISRDNAKNTVYLQMNSLKPEDTAVYYCAAGSYYTYSGYNYWGQGTQVTVSS”, the “polyreactivity (PSR sort gate)” value was “low polyreactivity”.

“QVQLVESGGGLVQAGGSLRLSCAASGITFGIYVMGWYRPAPGKEWELVATISRSDDNTYYADSVKGRFTISRDNAKNTVYLQMNSLKPEDTAVYYCAAYWYDLYWDYYTFDYWGQGTQVTVSS”: the “polyreactivity (PSR sort gate)” value is given as “low polyreactivity”.

On to “QVQLVESGGGLVQAGGSLRLSCAASGSILSYYVMGWYRPAPGKERELVAAITSDGSTNYADSVKGRFTISRDNAKNTVYLQMNSLKPEDTAVYYCAAVIAWYYGVQDVYYLGLYDYWGQGTQVTVSS”, for which the “polyreactivity (PSR sort gate)” value is listed as “low polyreactivity”.

With “QVQIVESGGGLVQPGGILRLSCAASGSTSQPYDMGWYRQAPGKEWELVASITKGRITYYADSVKGRFTISRDNAKNTVYLQMNSRKPEDTAVYYCNADNVFEGYDGRSARASYRYYSWGQGTQVTVSS”, the “polyreactivity (PSR sort gate)” value is recorded as “low polyreactivity”.

Take “QVQLVESVGGLVQAGGSLRLSCAASGRTFARYAMGWERQAPGQERELVAAISRNTGSTYADSVKGRFTISRDNAKNTVSLQMNSLKPEDTAVYYFASSWRGQDPYYRYVGRDYWGQGTQVTVSS”: the “polyreactivity (PSR sort gate)” value is on record as “high polyreactivity”.

Take “QFQLVDSGGGLVQAGGSLRLSCAASGLIFFYYAMGWYRQAPGKERELVAAIRTNYADSVKGRFTISRDNAKNTVYLQMNSLKPEDTAVYYCAAESSQTPTSAFDYWGQGTQVTVSS”: the “polyreactivity (PSR sort gate)” value was “low polyreactivity”.

“QVQLVESGGGLVQAGGRLRLSCAASGRIFPDNTMGWYRQAPGKERELVAVITYSGGSTYYADSVKGRFTISRDNAKNTVYLQMNSLKPEDTAVYYCAARDYYIWFAEVDYWGQGTQVTVSS”: the “polyreactivity (PSR sort gate)” value is recorded as “low polyreactivity”.

For “QVQLVESGGGLVQAGGSLRLSCAASGLTFYQYAMGWYRQAPGKERELVAAISKSAGSTYYADSVKGSFTISRDNAKNTVYLQMNSLKPEDTAVYFCAARVLRLRYDYWGQGTQVTVSS”, the “polyreactivity (PSR sort gate)” value was “high polyreactivity”.

Turning to “QEQLQESGGGLVQAGGSLRLSCAASGYISSWYPMGWYRQAPGKEREFVATIAPGATTYYADSVKGRFTISRDYAKNTVYLQMNSLTPEDTAVYYCAAGPENNDFYSYWGQGTQVTVSS”, the “polyreactivity (PSR sort gate)” value was “low polyreactivity”.

As to “QDQLVESRGVLVQAGGSLRLSCAAYGRIISPYAMGWYRQAPGKERELVAAISRRGTRTNYADSVKGRFTLSRDKAKNTVYLQMNSLKPVDTAVYYCNKTPLLRWGQGTQVSVSS”, the “polyreactivity (PSR sort gate)” value is listed as “high polyreactivity”.

Regarding “QVQLVESGGGLVQAGGSLRLSCAASGFTFYYAMGWYRQAPGKERELVAAISSSGARTYYADSVKGRFTISRDNAKYTVYLQMNSLKPEDTAVYYCAARRYYKFYYWGQGTQVTVSS”, the “polyreactivity (PSR sort gate)” value was “high polyreactivity”.

With “QVQLVESGGGLVQAGGSLRLSCAASGRIFGNNAMGLYRQAPGKERELVAAIRRGGSTYYADSVKGRFTISRDNAKNTVYLQMNSLKPEDTAVYYCAADSSRKHFYWGQGTQVTVSS”, the “polyreactivity (PSR sort gate)” value was “high polyreactivity”.

For the sequence “QVQLVESGGALVQAGGSLRLSCAYTGLIFGLYAMGWYTQAPGQERDFVAAITSVTSTYYADSVKGRFTISRDNAKNTFFLQMISLKPEDTAVYYCAADSPVDYLYALYLSVRDDYWGHGTQVTVSS”, the “polyreactivity (PSR sort gate)” value is “low polyreactivity”.

Take “QVQLVESGGGLVQAGGSLRLSCAASGRTFQLYAMGWYRQAPGKERELVAAITTRADRTYYADSVKGRFTISRDNAKNTVYLQLNSVKPEDTAVYYCAASYSRTYFREDYCGQGTQVTVSS”: the “polyreactivity (PSR sort gate)” value is “low polyreactivity”.

Take “QVQLVESGGGLVQAGGSLRLSCAASGFIFVPYAMGWYRQAPGKERELVAAISSGGSTYYADSVKGRFTISRDNAKNTVYLQMNSLKPEDTAVYYCNKRYYLYQYRYDYWGQGTQVTVSS”: the “polyreactivity (PSR sort gate)” value is listed as “low polyreactivity”.

Regarding “QVQLVESGGGLVQAGGSLRLSCASSGRTFSYYALGWSRQAPGKERELVAAITSGGSTYYADSVKGRFTISRDNAKNTVYLQMNSLKPEDTAVYYCAADPGDDYWGQGTQVTVSS”, the “polyreactivity (PSR sort gate)” value is recorded as “low polyreactivity”.

On to “QVQLVESGGGLVQAGGSLRLSCAASGRIIQRNTMGWYRQAPGKERELVAAISGSTGRTYYADSVKGRFTISRDNAKNTVYLQMNSLKPEDTAVYYCNTVGRSSSLSVFLIGYGYWGQGTQVTVSS”, for which the “polyreactivity (PSR sort gate)” value is recorded as “high polyreactivity”.

As for “QVQLVESGRGLLQAGGSLRLSCASSGGIFPKYAMGWYRQAPGKEREFVASISYRGGSTYYADSVKGRFTISRDNAKNTVYFQMNSLKPDDTAVFYCAKPTYRFYWGDFDYWGQGSQVTVSS”, the “polyreactivity (PSR sort gate)” value was “low polyreactivity”.

On to “QVQLVESGGGLVQAGGSLRLSCAASGRIFTAYHMGWYRQAPGKESELVAAITRSSGSTYYADSVKGRFTISRDNAKNTVYLQMIRLKPEVTAVYYCATDGEFWGYDSWGQGTQVTVSS”, for which the “polyreactivity (PSR sort gate)” value is listed as “low polyreactivity”.

As to “QVQLVESGGGLVQAGGSLRLSCAASGRIFGWNAMGWYRQAPGKERELVATITDGTSTNYADSVKGRFTISRDNAKNTVYLQMYSLKPVDTAVYYCAKRVVTSLYKPDGVKYDYWGQGTQVTVSS”, the “polyreactivity (PSR sort gate)” value was “high polyreactivity”.

Take “QVHLVESGGGLVQAGGSLRLSCAASGLTFYGNAMGCYRQAPGKERELVAAISSSGGTTYYADSVKGRFTISRDNAKNTVYLQMNSLKPEDTAVYYCAARPSGGFESTRTRDYWGQGTQVTVSS”: the “polyreactivity (PSR sort gate)” value is on record as “low polyreactivity”.

Regarding “QVQLVESGGGLVQAGCSLRLSSAASGFTFGYYGMGWYRQAPGKERELVAAISQSSTDTYYADSVKGRFTISRDNAKNTVYLQMNSLKPEDTPVYYCAAHPTDSEYDDYEYWGQGTQVTVSS”, the “polyreactivity (PSR sort gate)” value is “low polyreactivity”.

For “QVQLVESGGGLVQAGGSLRLSCAASGSIFYYYAMARYRPAPGKERELVASITSSGGTTSYADSVKGRFRISRDNAKNTVYLQMISLKPEDTAVYYCNAQVYRYRIGYDYWGQGTQVTVSS”, the “polyreactivity (PSR sort gate)” value is listed as “low polyreactivity”.
